Columns and labels:
[1] = molecular target: PCSK9 antigen (SEQ ID NO: 53), human PCSK9 (human) (UniProt Q8NBP7); test: flow cytometry, PCSK9 left bound to CHO-LDLR cells (anti-His-FITC), control IgG 10 nM
[2] = molecular target: PCSK9 antigen (SEQ ID NO: 53), human PCSK9 (human) (UniProt Q8NBP7); test: flow cytometry, PCSK9 left bound to CHO-LDLR cells (anti-His-FITC), control IgG 0.1 nM
[3] = molecular target: PCSK9 antigen (SEQ ID NO: 53), human PCSK9 (human) (UniProt Q8NBP7); test: flow cytometry, PCSK9 left bound to CHO-LDLR cells (anti-His-FITC), control IgG 1000 nM
[4] = molecular target: PCSK9 antigen (SEQ ID NO: 53), human PCSK9 (human) (UniProt Q8NBP7); test: flow cytometry, PCSK9 left bound to CHO-LDLR cells (anti-His-FITC), control IgG 100 nM
[5] = molecular target: PCSK9 antigen (SEQ ID NO: 53), human PCSK9 (human) (UniProt Q8NBP7); test: flow cytometry, PCSK9 left bound to CHO-LDLR cells (anti-His-FITC), control IgG 1 nM

Fluorescence signal value [1]: 6960 | Fluorescence signal value [2]: 7000 | Fluorescence signal value [3]: 8920 | Fluorescence signal value [4]: 7520 | Fluorescence signal value [5]: 6730
Substance: IgG (antibody)

Reference: patent publication US20220062416A1
